Tests used:
GB2005 E. coli cells [1] = assay: dsDNA recombination assay; type: cell-based; details: % of WT colonies per 10^8 viable cells
GB2005 E. coli cells [2] = assay: ssDNA recombination assay; type: cell-based; details: % of WT colonies per 10^8 viable cells
[3] = individual CTD mutations; cited from earlier work
λ Exo = details: Ni-spin pull down; cited from earlier work

Molecule	DS (%): dsDNA recombination compared to WT (GB2005 E. coli cells [1]) [%]	SS (%): ssDNA recombination compared to WT (GB2005 E. coli cells [2]) [%]	other results
F249A Redβ: Redβ variant (protein) MSTALATLAGKLAERVGMDSVDPQELITTLRQTAFKGDASDAQFIALLIVANQYGLNPWTKEIYAFPDKQNGIVPVVGVDGWSRIINENQQFDGMDFEQDNESCTCRIYRKDRNHPICVTEWMDECRREPFKTREGREITGPWQSHPKRMLRHKAMIQCARLAFGFAGIYDKDEAERIVENTAYTAERQPERDITPVNDETMQEINTLLIALDKTWDDDLLPLCSQIFRRDIRASSELTQAEAVKALGALKQKAAEQKVAA	0.21	0.73	DS (%): dsDNA recombination compared to WT (GB2005 E. coli cells [1]; listed as F249A): 0–0.7%
K253A Redβ (protein) MSTALATLAGKLAERVGMDSVDPQELITTLRQTAFKGDASDAQFIALLIVANQYGLNPWTKEIYAFPDKQNGIVPVVGVDGWSRIINENQQFDGMDFEQDNESCTCRIYRKDRNHPICVTEWMDECRREPFKTREGREITGPWQSHPKRMLRHKAMIQCARLAFGFAGIYDKDEAERIVENTAYTAERQPERDITPVNDETMQEINTLLIALDKTWDDDLLPLCSQIFRRDIRASSELTQAEAVKALGFLKQAAAEQKVAA	0.20	2.5	
L223D Redβ: Redβ variant (protein) MSTALATLAGKLAERVGMDSVDPQELITTLRQTAFKGDASDAQFIALLIVANQYGLNPWTKEIYAFPDKQNGIVPVVGVDGWSRIINENQQFDGMDFEQDNESCTCRIYRKDRNHPICVTEWMDECRREPFKTREGREITGPWQSHPKRMLRHKAMIQCARLAFGFAGIYDKDEAERIVENTAYTAERQPERDITPVNDETMQEINTLLIALDKTWDDDLLPDCSQIFRRDIRASSELTQAEAVKALGFLKQKAAEQKVAA	0.11	0.68	DS (%): dsDNA recombination compared to WT (GB2005 E. coli cells [1]; listed as L223D): 0–0.7%
R229A Redβ: Redβ variant (protein) MSTALATLAGKLAERVGMDSVDPQELITTLRQTAFKGDASDAQFIALLIVANQYGLNPWTKEIYAFPDKQNGIVPVVGVDGWSRIINENQQFDGMDFEQDNESCTCRIYRKDRNHPICVTEWMDECRREPFKTREGREITGPWQSHPKRMLRHKAMIQCARLAFGFAGIYDKDEAERIVENTAYTAERQPERDITPVNDETMQEINTLLIALDKTWDDDLLPLCSQIFARDIRASSELTQAEAVKALGFLKQKAAEQKVAA	71	58	DS (%): dsDNA recombination compared to WT (GB2005 E. coli cells [1]; listed as R229A): 55–106%; SS (%): ssDNA recombination compared to WT (GB2005 E. coli cells [2]; listed as R229A): 13 to 101%
Q252A Redβ: Redβ variant (protein) MSTALATLAGKLAERVGMDSVDPQELITTLRQTAFKGDASDAQFIALLIVANQYGLNPWTKEIYAFPDKQNGIVPVVGVDGWSRIINENQQFDGMDFEQDNESCTCRIYRKDRNHPICVTEWMDECRREPFKTREGREITGPWQSHPKRMLRHKAMIQCARLAFGFAGIYDKDEAERIVENTAYTAERQPERDITPVNDETMQEINTLLIALDKTWDDDLLPLCSQIFRRDIRASSELTQAEAVKALGFLKAKAAEQKVAA	85	101	DS (%): dsDNA recombination compared to WT (GB2005 E. coli cells [1]; listed as Q252A): 55–106%; SS (%): ssDNA recombination compared to WT (GB2005 E. coli cells [2]; listed as Q252A): 13 to 101%; dsDNA relative to ssDNA recombination [3]: decreased dsDNA more than ssDNA recombination
F249D Redβ (protein) MSTALATLAGKLAERVGMDSVDPQELITTLRQTAFKGDASDAQFIALLIVANQYGLNPWTKEIYAFPDKQNGIVPVVGVDGWSRIINENQQFDGMDFEQDNESCTCRIYRKDRNHPICVTEWMDECRREPFKTREGREITGPWQSHPKRMLRHKAMIQCARLAFGFAGIYDKDEAERIVENTAYTAERQPERDITPVNDETMQEINTLLIALDKTWDDDLLPLCSQIFRRDIRASSELTQAEAVKALGDLKQKAAEQKVAA	0	0.41	
Q226A Redβ: Redβ variant (protein) MSTALATLAGKLAERVGMDSVDPQELITTLRQTAFKGDASDAQFIALLIVANQYGLNPWTKEIYAFPDKQNGIVPVVGVDGWSRIINENQQFDGMDFEQDNESCTCRIYRKDRNHPICVTEWMDECRREPFKTREGREITGPWQSHPKRMLRHKAMIQCARLAFGFAGIYDKDEAERIVENTAYTAERQPERDITPVNDETMQEINTLLIALDKTWDDDLLPLCSAIFRRDIRASSELTQAEAVKALGFLKQKAAEQKVAA	106		DS (%): dsDNA recombination compared to WT (GB2005 E. coli cells [1]; listed as Q226A): 55–106%; SS (%): ssDNA recombination compared to WT (GB2005 E. coli cells [2]; listed as Q226A): 13 to 101%
K132A Redβ: Redβ variant, non-interfacial residue Lys-132 of the NTD, control (protein) MSTALATLAGKLAERVGMDSVDPQELITTLRQTAFKGDASDAQFIALLIVANQYGLNPWTKEIYAFPDKQNGIVPVVGVDGWSRIINENQQFDGMDFEQDNESCTCRIYRKDRNHPICVTEWMDECRREPFATREGREITGPWQSHPKRMLRHKAMIQCARLAFGFAGIYDKDEAERIVENTAYTAERQPERDITPVNDETMQEINTLLIALDKTWDDDLLPLCSQIFRRDIRASSELTQAEAVKALGFLKQKAAEQKVAA	19	20	
L223A Redβ: Redβ variant (protein) MSTALATLAGKLAERVGMDSVDPQELITTLRQTAFKGDASDAQFIALLIVANQYGLNPWTKEIYAFPDKQNGIVPVVGVDGWSRIINENQQFDGMDFEQDNESCTCRIYRKDRNHPICVTEWMDECRREPFKTREGREITGPWQSHPKRMLRHKAMIQCARLAFGFAGIYDKDEAERIVENTAYTAERQPERDITPVNDETMQEINTLLIALDKTWDDDLLPACSQIFRRDIRASSELTQAEAVKALGFLKQKAAEQKVAA	0.72	3.5	DS (%): dsDNA recombination compared to WT (GB2005 E. coli cells [1]; listed as L223A): 0–0.7%
F94E λexo: λ Exo variant (protein, left off: His6, N-terminal, kept) MTPDIILQRTGIDVRAVEQGDDAWHKLRLGVITASEVHNVIAKPRSGKKWPDMKMSYFHTLLAEVCTGVAPEVNAKALAWGKQYENDARTLFEETSGVNVTESPIIYRDESMRTACSPDGLCSDGNGLELKCPFTSRDFMKFRLGGFEAIKSAYMAQVQYSMWVTRKNAWYFANYDPRMKREGLHYVVIERDEKYMASFDEIVPEFIEKMDEALAEIGFVFGEQWR	0.68	177	DS (%): dsDNA recombination compared to WT (GB2005 E. coli cells [1]; listed as F94E): 0.6–3%
L91D λexo (protein, left off: His6, N-terminal, kept) MTPDIILQRTGIDVRAVEQGDDAWHKLRLGVITASEVHNVIAKPRSGKKWPDMKMSYFHTLLAEVCTGVAPEVNAKALAWGKQYENDARTDFEFTSGVNVTESPIIYRDESMRTACSPDGLCSDGNGLELKCPFTSRDFMKFRLGGFEAIKSAYMAQVQYSMWVTRKNAWYFANYDPRMKREGLHYVVIERDEKYMASFDEIVPEFIEKMDEALAEIGFVFGEQWR	3.1	110	
D87A λexo (protein, left off: His6, N-terminal, kept) MTPDIILQRTGIDVRAVEQGDDAWHKLRLGVITASEVHNVIAKPRSGKKWPDMKMSYFHTLLAEVCTGVAPEVNAKALAWGKQYENAARTLFEFTSGVNVTESPIIYRDESMRTACSPDGLCSDGNGLELKCPFTSRDFMKFRLGGFEAIKSAYMAQVQYSMWVTRKNAWYFANYDPRMKREGLHYVVIERDEKYMASFDEIVPEFIEKMDEALAEIGFVFGEQWR	55	179	DS (%): dsDNA recombination compared to WT (GB2005 E. coli cells [1]; listed as D87A): 55–106%
F94A λexo (protein, left off: His6, N-terminal, kept) MTPDIILQRTGIDVRAVEQGDDAWHKLRLGVITASEVHNVIAKPRSGKKWPDMKMSYFHTLLAEVCTGVAPEVNAKALAWGKQYENDARTLFEATSGVNVTESPIIYRDESMRTACSPDGLCSDGNGLELKCPFTSRDFMKFRLGGFEAIKSAYMAQVQYSMWVTRKNAWYFANYDPRMKREGLHYVVIERDEKYMASFDEIVPEFIEKMDEALAEIGFVFGEQWR	1.6	183	
L91A λexo (protein, left off: His6, N-terminal, kept) MTPDIILQRTGIDVRAVEQGDDAWHKLRLGVITASEVHNVIAKPRSGKKWPDMKMSYFHTLLAEVCTGVAPEVNAKALAWGKQYENDARTAFEFTSGVNVTESPIIYRDESMRTACSPDGLCSDGNGLELKCPFTSRDFMKFRLGGFEAIKSAYMAQVQYSMWVTRKNAWYFANYDPRMKREGLHYVVIERDEKYMASFDEIVPEFIEKMDEALAEIGFVFGEQWR	0.63	103	
NTD: N-terminal domain of Redβ, residues 1–177 (protein) MSTALATLAGKLAERVGMDSVDPQELITTLRQTAFKGDASDAQFIALLIVANQYGLNPWTKEIYAFPDKQNGIVPVVGVDGWSRIINENQQFDGMDFEQDNESCTCRIYRKDRNHPICVTEWMDECRREPFKTREGREITGPWQSHPKRMLRHKAMIQCARLAFGFAGIYDKDEAER			interaction with λ Exo (λ Exo): no interaction
